According to PMC6692119 (Nature, 2017):
One block for each binder: values may come before it.

What was measured:
Experiment in all cases: cryo-EM structure
[1] = biological target: T1, Med17 (S. pombe Mediator subunit) (S. pombe, UniProt P87306 1-545)
T1 sequence (looked up): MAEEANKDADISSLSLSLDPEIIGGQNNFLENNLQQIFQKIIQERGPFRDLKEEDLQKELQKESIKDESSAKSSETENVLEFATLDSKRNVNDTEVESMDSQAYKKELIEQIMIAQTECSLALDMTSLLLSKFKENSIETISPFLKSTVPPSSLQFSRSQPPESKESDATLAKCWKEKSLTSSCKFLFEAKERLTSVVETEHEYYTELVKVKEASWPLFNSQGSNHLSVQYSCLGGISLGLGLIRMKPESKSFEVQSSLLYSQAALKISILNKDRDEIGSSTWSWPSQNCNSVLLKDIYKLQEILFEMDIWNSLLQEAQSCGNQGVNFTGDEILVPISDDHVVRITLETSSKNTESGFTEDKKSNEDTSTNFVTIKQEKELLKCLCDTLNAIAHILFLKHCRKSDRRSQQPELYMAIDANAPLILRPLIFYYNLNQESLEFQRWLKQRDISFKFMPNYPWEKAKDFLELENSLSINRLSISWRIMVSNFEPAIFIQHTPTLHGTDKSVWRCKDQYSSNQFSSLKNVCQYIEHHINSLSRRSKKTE

[2] = biological target: T2, Med14 (S. pombe Mediator subunit) (S. pombe, UniProt Q9P7Y4 1-879)
T2 sequence (looked up): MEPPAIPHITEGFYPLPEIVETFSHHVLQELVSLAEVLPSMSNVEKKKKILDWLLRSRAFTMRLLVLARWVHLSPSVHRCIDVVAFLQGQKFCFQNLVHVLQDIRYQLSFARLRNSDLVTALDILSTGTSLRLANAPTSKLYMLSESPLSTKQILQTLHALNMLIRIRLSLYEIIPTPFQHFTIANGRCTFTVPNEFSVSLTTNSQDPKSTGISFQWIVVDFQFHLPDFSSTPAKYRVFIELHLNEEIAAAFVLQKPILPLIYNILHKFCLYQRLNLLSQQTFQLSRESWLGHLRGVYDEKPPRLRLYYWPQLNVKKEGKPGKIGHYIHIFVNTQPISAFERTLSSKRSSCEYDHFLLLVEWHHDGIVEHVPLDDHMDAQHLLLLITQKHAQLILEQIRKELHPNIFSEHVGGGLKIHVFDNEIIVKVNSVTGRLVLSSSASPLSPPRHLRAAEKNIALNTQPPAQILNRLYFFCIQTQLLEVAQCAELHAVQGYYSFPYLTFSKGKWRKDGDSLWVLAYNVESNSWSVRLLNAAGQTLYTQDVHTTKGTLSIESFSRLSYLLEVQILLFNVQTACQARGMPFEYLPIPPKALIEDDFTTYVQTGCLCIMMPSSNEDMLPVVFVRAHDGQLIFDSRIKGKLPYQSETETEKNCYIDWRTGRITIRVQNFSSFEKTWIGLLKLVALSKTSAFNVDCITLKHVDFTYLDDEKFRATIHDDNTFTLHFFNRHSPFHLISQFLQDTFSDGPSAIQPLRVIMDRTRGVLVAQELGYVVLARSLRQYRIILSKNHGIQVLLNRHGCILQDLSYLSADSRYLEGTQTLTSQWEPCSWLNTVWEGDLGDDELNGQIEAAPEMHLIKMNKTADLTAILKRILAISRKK

[3] = biological target: T3, Med18 (S. pombe Mediator subunit) (S. pombe, UniProt O14198 1-207)
T3 sequence (looked up): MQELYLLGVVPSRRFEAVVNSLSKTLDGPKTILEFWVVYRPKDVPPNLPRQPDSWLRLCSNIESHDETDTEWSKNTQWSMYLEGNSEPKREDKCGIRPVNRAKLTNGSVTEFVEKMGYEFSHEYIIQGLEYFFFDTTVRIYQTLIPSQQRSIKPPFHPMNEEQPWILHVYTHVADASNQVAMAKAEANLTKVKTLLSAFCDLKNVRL

binding result [1]: binds
B1: Med7-TAP (S. pombe Mediator subunit) (natural protein, UniProt O60104 1-376, looked up)
chain: MEPNEGVQLFSAFPPPPPYYKLFTRENIEKVISNMEKEAKHEDDANTLQPKTEEEIESLAKLFKKPSCLTSGTYQMFGDTWRLDEAIPSLKEFGIPELYKDIKDGEDEIEVVEYDPKSNAIVGTSFTRVHDYDKNSPIENEKILEDDQHTAMKEKDNESDKTMKDVEEKTEPSLKKEEEDIQMKEPLDSQDTGAVSASSVNEGFRADQKSKDGETSDLIKIPRRAYELRFLSRSLMLNFLELLGIMAKAPEQFPSKVENIRVLLLNLHHLINDYRPHQSRESLIMLLEKQLKHEESQVELLRTHNRQMTETLEKYKSLDFNMEKEGDVIQQLKSSIKKPLSGAEDEQKSRSMFSKNDEKLKKSLELMEDVIKRDLS

binding result [1]: binds
B2: Med31 (S. pombe Mediator subunit) (natural protein, UniProt Q9USH1 1-139, looked up)
chain: METKWLLSKVPDDKSRFEIELEFVQMLSNPWYLNFLAQHKYFEDEAFLQYLEYMEYWREPEYVKFIIYPTCLHMLTLLKNPQFRNDISRADLSKQVNDEIYYEWLGKGLQQYGSADDATLSQPQQEEDEKKVDVKKENE

binding result [1]: binds | binding result [2]: binds
B3: Med27 (S. pombe Mediator subunit) (natural protein, UniProt Q10477 1-273, looked up)
chain: MSLEEQRTRDELKHKLLDLNQLHEQLAELRTICPSLLKLLHPETGTSRKFEKSAQEAIEKVNSFYTHLKSSQNVFDYAEKSLQADSSNLLPTYLYNSEDLSNDTENNETKSINGKSALDLKEPHHSELHDNDNFQNSDINIESFKGDIEASGSILTTHENKSFTLKLANELEFIFFHDTRGKFSVYCSSSKDDAITFSINRNNNFLGNLWSLMPKILDYQHLYSKPCDFCKSLISPVYLELPSVRRNANSTVKPTSKDILALHAECVPAQSDL

binding result [3]: binds
B4: Med20 (S. pombe Mediator subunit) (natural protein, UniProt Q10317 1-193, looked up)
chain: MPVHGVIYYSSPSMATFLSPAQDNLVRTYFAQHLKKWVVQYKLYRNAVTPKTLEFLKQNINPSMLACVDEATMIDAEPELEDIIVRTKLWNFRQSFTIEGSIYEVGSFKVAIANVLQKSVWKGILFHVTYDGTESVDLARPIIQEFFLKCFLQNNKSVTPVYESFFNQPRHSLDSKLLLQLFKQRIDTVSQRT
